Reference: the DeepSol protein solubility set

Experiment: soluble on expression in E. coli; label from the status in PepcDB or PDB records

Q: Which “soluble on expression in E. coli” value does the source give for “MKVLIGGYTKKTSKGIYELPFIGEDNEAHLEKAENIISVGGPTYFQKDGDLVFTINNAGDEGGISAFKLSDHGSNEIDRHLTPGASPAYIGINKEKKLLYTANYHTAVLSVFQYSNSGKLALVAQTTHKAESLGPRPEQVDGPHPHFFDETPAGNLVSCDLGNDTVDFYRLENNELKHLAQYKNEAGFGDRHIVFSKDGNYFYVVGELSSQINVVKFNENTWEFEDIATYKTIPEDFTEHNGAAALYITNDGKYIYNSNRGHNSITVFKVNDDHTLSLIQRISTFGDFPRDFNWDETQKYVVAANQNTDNATLYLRNGGNGTLTPIQTEIPVPEGTRVLFTKLEHHHHHH” here?
A: Its value is “not soluble”.

Q: With “MPKSVKVIAVTPEEREAVMSIDFGGAYDFTSPGFNLFEVREKYSEPMDAAAGVVYNLLWNSGLPEKFGCREQTLLNFILQCRRRYRRVPYHNFYHVVDVCQTLHTYLYTGKASELLTELECYVLLVTALVHDLDHMGVNNSFYLKTDSPLGILSSASGNNSVLEVHHCSLAIEILSDPAADVFEGLSGQDVAYAYRALIDCVLATDMARHGDLSRVFDDMAKAGYDSNDQESRRLVMETLIKAGDVSNVTKPFETSRMWAMAVTEEFYRQGDMEKEKGVEVLPMFDRSKNNELARGQIGFIDFVAGKFFRDIVGNLFHGMQWCVDTVNSNRAKWQEILDGRRDSIRPSIV” as the sequence, how does the “soluble on expression in E. coli” value read?
A: The value was “soluble”.

Q: For “MSLPLPKAELHLHIEGTLEPELAFALAARNGVPLPYAHTDELRKAYQFDDLQSFLNLYYELMAVLRTEQDFEDLANAYLPRAAAQGVRHAEIFFDPQAHIARGVAMGTVVEGLWRALGRSTENHGVSTQLIMCFLRDESAESALETLEAAKPYLDRIIGIGLDSAEVGHPPAKFREVYEAAAALGLRRVAHAGEEGPPEYITEALDVLGVERIDHGLRCMEDDALVERLVRERVPLTLCPLSNVRLRAVDVLAEHPLPAMLDAGLLCTVNSDDPAYFGGYVADNFHAVRDALGLDQERMRELARNSFVASFLEHDEERRARYLAEVEAYDFPGEGHHHHHH”, which “soluble on expression in E. coli” value is on record?
A: Its value is “soluble”.

Q: Which “soluble on expression in E. coli” value does the source give for “MHYFSIHDQSGRHIGFFILLADDESEARPQSGRFAVKLEGGMENHVLSPFGQTEIPQYWRVVKDRIELFFDEAPVGTLRNEYLTVSGQTFVLNDLTGNM” here?
A: Its value is “not soluble”.

Q: With “MSTMSTPAAEQRKLVEQLMGRDFSFRHNRYSHQKRDLGLHDPKICKSYLVGECPYDLFQGTKQSLGKCPQMHLTKHKIQYEREVKQGKTFPEFEREYLAILSRFVNECNGQISVALQNLKHTAEERMKIQQVTEELDVLDVRIGLMGQEIDSLIRADEVSMGMLQSVKLQELISKRKEVAKRVRNITENVGQSAQQKLQVCEVCGAYLSRLDTDRRLADHFLGKIHLGYVKMREDYDRLMKNNRTTNASKTATTLPGRRFV” as the sequence, how does the “soluble on expression in E. coli” value read?
A: The value was “not soluble”.

Q: For “MGSDKIHHHHHHMKQLTMPLTALALFTLGGCVTNSDLDVVRRDLDELKNRQFQVEKEVGGVRTEATARIESSFKDLDTERAGVRKGLADLQAAMDGIKVDMQVLAGKVDDVGLAAKKPGDDLILLREDLERRLTAFDQRLAKAETGIEALQKKVAEQAPSPKETEKPTPEALYQKGLDAYRAGNYGVARESFTRFLEQHPKHELAANARYWTGETYYSEKKFEQAILEFQEVIKNYPGKEKVPAAMLKQAAAFSEIGDAKSARFVLRKLADDYPSSEEAKRAKDRLKELK”, which “soluble on expression in E. coli” value is on record?
A: Its value is “not soluble”.

Q: For “MAHHHHHHMTQLHSVASLDYGDGRTCVCRICECGKHQCPGLRVPFVGETTYRDEYVGKSIERERPRKARQTVFPSKAEPGHFKTTKQEAADLLKGKDLRPAESYKPREAAAAPLPFEGTTTNRADFPGWMPDYNRTKRKEDPLPRLPGTYVTTKGAMEEPVRDLAEQGRLPKPPKSFKADDTLQNSLPFDGITNYTAEYQPKEVPMTRSAARDVQPVALPENRDFQTTVSAAYQVPPMHMRHDCPAAFVPMRPASRDGHIKLSVYNIPSGDTMY”, which “soluble on expression in E. coli” value is on record?
A: The value was “not soluble”.

Q: Which “soluble on expression in E. coli” value does the source give for “MKRVLIPGVILCGADVAQAVDDKNMYMHFFEEMTVYAPVPVPVNGNTHYTSESIERLPTGNGNISDLLRTNPAVRMDSTQSTSLNQGDIRPEKISIHGASPYQNAYLIDGISATNNLNPANESDASSATNISGMSQGYYLDVSLLDNVTLYDSFVPVEFGRFNGGVIDAKIKRFNADDSKVKLGYRTTRSDWLTSHIDENNKSAFNQGSSGSTYYSPDFKKNFYTLSFNQELADNFGVTAGLSRRQSDITRADYVSNDGIVAGRAQYKNVIDTALSKFTWFASDRFTHDLTLKYTGSSRDYNTSTFPQSDREMGNKSYGLAWDMDTQLAWAKLRTTVGWDHISDYTRHDHDIWYTELSCTYGDITGRCTRGGLGHISQAVDNYTFKTRLDWQKFAVGNVSHQPYFGAEYIYSDAWTERHNQSESYVINAAGKKTNHTIYHKGKGRLGIDNYTLYMADRISWRNVSLMPGVRYDYDNYLSNHNISPRFMTEWDIFANQTSMITAGYNRYYGGNILDMGLRDIRNSWTESVSGNKTLTRYQDLKTPYNDELAMGLQQKIGKNVIARANYVYREAHDQISKSSRTDSATKTTITEYNNDGKTKTHSFSLSFELAEPLHIRQVDINPQIVFSYIKSKGNLSLNNGYEESNTGDNQVVYNGNLVSYDSVPVADFNNPLKISLNMDFTHQPSGLVWANTLAWQEARKARIILGKTNAQYISEYSDYKQYVDEKLDSSLTWDTRLSWTPQFLQQQNLTISADILNVLDSKTAVDTTNTGVATYASGRTFWLDVSMKF” here?
A: The value was “not soluble”.

Q: With “MGSDKIHHHHHHMKKPSQFDAIVVGAGPSGNAAAYTMARAGLKVLQIERGEYPGSKNVQGAILYAKALEEIIPDFRDDAPLERHIIEQRIWMLDDTSFVGTHMRSEEYNKPPYNRYTIIRAQFDKWFSSKVREAGALLICETTVKQLIMDGDQVVGVQCDREHGDVYADVVVLADGVNSTLARKAGFHGEIEAGNVALAVKEILFMPEETIRQRFNIGEDDGVVIEMVGRITDGMTGTGFLYTNKESLTIGVGCMLGDFKKNPNRTSPYVLLEKMKQHPSIAPLIAGGEMKEYCAHLIPEGGFHAIPRVYGNGWMIVGDSGGFVNAAHREGSNLAMTTGRLAAETVIHAKAAGLGYRAATLKAYKAALDQSFVMKDLHKYRDMPAVLHQNPQFFTTYPDLVARAARTMLTVDGKDKKSKEREIFSSFRKARSLAGMVGDAYKLLRAFR” as the sequence, how does the “soluble on expression in E. coli” value read?
A: The value was “not soluble”.

Q: Which “soluble on expression in E. coli” value does the source give for “MASGQDKTHIDYAYELDITVKPDSRVPVFNREFATFTGAGVPLFSLGGGPIRYALAEVLAKFHARRGYYVVETPIIASTELFKVSGHIEFYRNNMYLFDIEGHEFAVKPMNCPYHILLFLNEVAKHRSKLPLPFKVFEFGRVHRYEPSGSIYGLLRVRGFTQDDAHIIVPGGRVIDVVYDVFEEMKLVLERLFKLGVSSETFKVRLSMSDKSLIGKEFMGSKEEWEGAEEALREAASRINEKYGIDIVELEGEAAFYGPKLDFIMMVEESGVSKEWQMGTIQFDFNLPRRFRLYDVVREEFGIEEVYIIHRALLGSIERFLGVYLEHRRGRMPFTLAPIQFAVIAVKTGGEVDREIEDLASSIAKGLLDKGFRVAVKGSSKTGLSSDVRHIESTAKPAVNVFIGAKEVREKVLDVRVFDLESMKRRRLAIAYGDAADAVENLAAVAEELESPVRSLSGQAPRIPADFSFML” here?
A: The value was “soluble”.

Q: Which “soluble on expression in E. coli” value does the source give for “MGSDKIHHHHHHMIFIPPFEQGKLLRRYKRFLADVLLDDGTEITIHCPNTGSMRNCLFPGERVWFSTSDNPKRKYAHTWEQAASDEGHIIGINTGRANALAAEAIEAGVISELTGYDRLRREVKYGSENSRIDLLLESEDKPACYIEVKSCTLLEQGQGYFPDAVTTRGQKHLRELMEMVKQGHRAVLLFVVQHTGITTVAAARHIDPEYAELLTQAHQAGVEILAYSCELSPSAAKLIKSCPVKL” here?
A: Its value is “not soluble”.

Q: Which “soluble on expression in E. coli” value does the source give for “MGSDKIHHHHHHMKRISQQELESYLWGAAVLLRGLIDAGDYKQFIFPLLFYKRVSDVWDEEYQAALANSGGDLSYAQFAENHRFQIPAGAHWNDVRQTPKNVGAAIQKAMRAIESANPDLLDGIFGDAPWTNRERLPDETLKNLIEHFSTQTLSVANVPEDELGNAYEYLIKKFADDSGHTAAEFYTNRTVVHLMTQLLAPQAGESIYDPTCGTGGMLISALDEVKRAGGEYRTLKLYGQERNLITSSIARMNLFLHGVEDFEIIRGDTLAEPKHIEGDRLRQFDVILANPPYSIKQWNREAWSSDKWGRNSLGTPPQGRADYAFQQHILTSLTAKGRCAVLWPHGVLFRNEEQSMRAKMVEQDWVEAVIGLGPNLFYNSPMESCIVICNRKKAAARKGKVIFIDAVNEVARERAQSFLKPEHQQRILTAYKTFADVPGFAKVATLAEIGANAGNLSIPLYVKRIAAAIATDSNDDAVSLRSAWDQWQADGRAFWQQMDALVETLDGLVAQEAADA” here?
A: Its value is “not soluble”.

Q: With “MAPVIRRAKEIDLYCLNSLMYKLHDEHHQQCPDLFKTASEIEEEKSIARYLDDPECMVYVAEMDDVIIGFITGHFCELISTVSKLVMMATIDELYIEKEYRREGVAEQLMMRIEQELKDYGVKEIFVEVWDFNKGALEFYNKQGLNEHIHYLRKPLNRLEHHHHHH” as the sequence, how does the “soluble on expression in E. coli” value read?
A: The value was “soluble”.

Q: With “MAHHHHHHMSSVDSTHRLLHPCTGILPSASLHGRHSIALAPPPTLPPPPLLHTRIPIHIHIIHYATLNPATFLDHSTQLDYEMPTRFKKCRHQRGSTFCGYGRVGKHRKHESGRGNAGGMHHHRINFDKYHPGYFGKLGMDHYHRKKNPMWKPTINLNNLSRLIAAEEAAKAAKGGTLPVVDLQSSGYAKLLGNGHIQVPCIVKARYVSKLADKKIRKAGGAVVLQA” as the sequence, how does the “soluble on expression in E. coli” value read?
A: Its value is “not soluble”.

Q: With “IQVFLSARPPAPEVSKIYDNLILQYSPSKSLQMILRRALGDFENMLADGSFRAAPKSYPIPHTAFEKSIIVQTSRMFPVSLIEAARNHFDPLGLETARAFGHKLATAALACFFAREKATNS” as the sequence, how does the “soluble on expression in E. coli” value read?
A: Its value is “soluble”.

Q: For “MKTKPQAPHVDFYEKSELLHFLDCASKHENPQAFMFFRLLAFTGLRRGEALALQWSDINFETNELTVNKTQAVGKRWRTIIQTPKTNTSYRTIVLDPDTAQWLHKWKMTQARQCFELGFNANDPSQLVFTNQQNKLMSPSTVNYFNWSICKKYGLRHIKIHAFRHTFCTLAFEAHAGINEVSKTLGHADLKITEQIYLHVTKKQKNETASKLARYMSELLEHHHHHH”, which “soluble on expression in E. coli” value is on record?
A: Its value is “soluble”.

Q: Which “soluble on expression in E. coli” value does the source give for “MGSDKIHHHHHHMSDKKYNVDEGEIAKFSRIADKWWDKSGEFKTLHDINPLRLDYIDGHADLCGKRVLDVGCGGGILAESMARRGAAFVKGIDMAEQSLETARLHAALNNVADIEYECIRVEDLAEAEPHSFDVVTCMEMMEHVPDPAAIVRACAKLVKPDGMVFFSTINKNPKSYLHLIVAAEYLLKFVPKGTHDWKKFIVPAELARMCRQAGLDVADTKGMTYHVLSQTYALCDSTDVNYMFACRPAF” here?
A: Its value is “not soluble”.

Q: With “MSEILVLNCGSSSVKFALINPHTSQSLVTGLAENIATKNCKVVFKAEHKIVKYLENGSYKDVFEMLKDFLVENKHLEKIVAIGHRVVHGGQYFSKSVLINADSLEKIKACIALAPLHNPAHIEGIRFCQQIFPELPQVAVFDTAFHQTMPSYIAEYAIPYELTHKHNIRKYGAHGTSHKYVSEQAAKILTQQKANVIVAHLGNGCSITAVVDGKSIDTSMGLTPLDGLVMGTRSGCIDPSIFAYISDNLGWSVTEITNMLNKQSGLLGICGHNDMREVSQLAAKGDSLAKLAIEIFSHRVAKFVASYMIYFNKLDALVFTGGIGENAANIRKNIISKLANLGFMIDHQKNSNSETFINSKNSHNIMVIATNEELMIAQETQNLI” as the sequence, how does the “soluble on expression in E. coli” value read?
A: The value was “soluble”.

Q: For “MGSDKIHHHHHHMTLYLGIDTSAYTTSLAIVDEQAELVYENRKILTVPEGERGLAQSAALFQHVQNLPQLVTAVPPQYWEKVSALGVSTAPRPIQESYMPVFLPGYGVAAAMASARCIPLVETSHQEGHLAAGIASSKLKEPHFLAIHISGGTTELLEVHHTQPGKLDIQLLGGTTDLHAGQFVDRVGVRLGLPFPAGKSLEELARQADPGAAAWLPSAVRGFEVSFSGVETAAQRLIDQGKNPADVARAVEGCIVRTLGKLLQAGMEKTTLSEILIVGGVASNQFIRQELKKRLARHANLHWAEPDWSRDNAIGVALLALEKVRGCII”, which “soluble on expression in E. coli” value is on record?
A: The value was “not soluble”.
